In PMC10397247:
Each block holds one binder with its values, some of them ahead of it.

How the values were obtained:
4H492-bH = biological target: T1, 4H492-bH; test: two-hybrid library CCNG1;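 also: natural log of median RNA to DNA barcode read ratio; higher means stronger binding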
T1 chain: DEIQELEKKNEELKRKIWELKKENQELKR

4H741-bH = biological target: T2, 4H741-bH; test: two-hybrid library CCNG1;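 also: natural log of median RNA to DNA barcode read ratio; higher means stronger binding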
T2 chain: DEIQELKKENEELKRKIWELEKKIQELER

4H454-bN = biological target: T3, 4H454-bN; test: two-hybrid library CCNG1;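 also: natural log of median RNA to DNA barcode read ratio; higher means stronger binding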
T3 chain: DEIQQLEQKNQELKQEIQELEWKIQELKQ

4H568-bN = biological target: T4, 4H568-bN; test: two-hybrid library CCNG1;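 also: natural log of median RNA to DNA barcode read ratio; higher means stronger binding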
T4 chain: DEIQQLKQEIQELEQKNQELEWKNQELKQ

4H607-bN = biological target: T5, 4H607-bN; test: two-hybrid library CCNG1;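 also: natural log of median RNA to DNA barcode read ratio; higher means stronger binding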
T5 chain: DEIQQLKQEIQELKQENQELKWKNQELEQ

4H687-bN = biological target: T6, 4H687-bN; test: two-hybrid library CCNG1;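 also: natural log of median RNA to DNA barcode read ratio; higher means stronger binding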
T6 chain: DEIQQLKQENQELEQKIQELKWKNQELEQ

4H717-bN = biological target: T7, 4H717-bN; test: two-hybrid library CCNG1
T7 chain: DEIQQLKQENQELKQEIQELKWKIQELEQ

4H72-bN = biological target: T8, 4H72-bN; test: two-hybrid library CCNG1
T8 chain: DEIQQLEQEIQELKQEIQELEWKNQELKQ

4H754-bN = biological target: T9, 4H754-bN; test: two-hybrid library CCNG1
T9 chain: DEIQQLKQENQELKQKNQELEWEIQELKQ

4H797-bN = biological target: T10, 4H797-bN; test: two-hybrid library CCNG1
T10 chain: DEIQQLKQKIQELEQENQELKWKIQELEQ

4H883-bN = biological target: T11, 4H883-bN; test: two-hybrid library CCNG1
T11 chain: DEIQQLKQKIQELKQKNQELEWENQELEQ

4H908-bN = biological target: T12, 4H908-bN; test: two-hybrid library CCNG1
T12 chain: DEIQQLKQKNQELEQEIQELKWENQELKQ

4H918-bN = biological target: T13, 4H918-bN; test: two-hybrid library CCNG1
T13 chain: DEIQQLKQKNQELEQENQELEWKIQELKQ

4H953-bN = biological target: T14, 4H953-bN; test: two-hybrid library CCNG1
T14 chain: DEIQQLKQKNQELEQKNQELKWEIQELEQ

4H967-bN = biological target: T15, 4H967-bN; test: two-hybrid library CCNG1
T15 chain: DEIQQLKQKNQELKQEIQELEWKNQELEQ

4H3940-AA = biological target: T16, 4H3940-AA; test: two-hybrid library CCmax
T16 chain: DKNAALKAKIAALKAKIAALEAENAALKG

4H510-AA = biological target: T17, 4H510-AA; test: two-hybrid library CCmax; conditions: mean of both orientations
T17 chain: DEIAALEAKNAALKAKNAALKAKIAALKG

4H775-AA = biological target: T18, 4H775-AA; test: two-hybrid library CCmax; conditions: mean of both orientations
T18 chain: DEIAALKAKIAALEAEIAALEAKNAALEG

4H816-AA = biological target: T19, 4H816-AA; test: two-hybrid library CCmax; conditions: mean of both orientations
T19 chain: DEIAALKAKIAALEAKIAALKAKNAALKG

4H87-AA = biological target: T20, 4H87-AA; test: two-hybrid library CCmax; conditions: mean of both orientations
T20 chain: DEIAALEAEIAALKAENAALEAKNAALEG

4H3094-AA = biological target: T21, 4H3094-AA; test: two-hybrid library CCmax
T21 chain: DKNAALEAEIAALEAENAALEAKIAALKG

4H324-AA = biological target: T22, 4H324-AA; test: two-hybrid library CCmax; conditions: mean of both orientations
T22 chain: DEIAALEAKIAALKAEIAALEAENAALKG

4H341-AA = biological target: T23, 4H341-AA; test: two-hybrid library CCmax; conditions: mean of both orientations
T23 chain: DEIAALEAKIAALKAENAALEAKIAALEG

4H3449-AA = biological target: T24, 4H3449-AA; test: two-hybrid library CCmax; conditions: mean of both orientations
T24 chain: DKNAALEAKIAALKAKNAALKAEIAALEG

4H3619-AA = biological target: T25, 4H3619-AA; test: two-hybrid library CCmax; conditions: mean of both orientations
T25 chain: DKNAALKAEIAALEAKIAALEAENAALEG

4H3629-AA = biological target: T26, 4H3629-AA; test: two-hybrid library CCmax; conditions: mean of both orientations
T26 chain: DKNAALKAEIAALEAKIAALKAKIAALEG

4H3777-AA = biological target: T27, 4H3777-AA; test: two-hybrid library CCmax; conditions: mean of both orientations
T27 chain: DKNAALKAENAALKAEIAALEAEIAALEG

4H380-AA = biological target: T28, 4H380-AA; test: two-hybrid library CCmax; conditions: mean of both orientations
T28 chain: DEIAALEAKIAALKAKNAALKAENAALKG

4H3915-AA = biological target: T29, 4H3915-AA; test: two-hybrid library CCmax
T29 chain: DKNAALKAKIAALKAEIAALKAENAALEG

4H3974-AA = biological target: T30, 4H3974-AA; test: two-hybrid library CCmax; conditions: mean of both orientations
T30 chain: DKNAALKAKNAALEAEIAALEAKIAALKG

4H432-AA = biological target: T31, 4H432-AA; test: two-hybrid library CCmax; conditions: mean of both orientations
T31 chain: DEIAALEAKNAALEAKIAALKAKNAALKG

4H446-AA = biological target: T32, 4H446-AA; test: two-hybrid library CCmax; conditions: mean of both orientations
T32 chain: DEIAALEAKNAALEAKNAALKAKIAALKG

4H63-AA = biological target: T33, 4H63-AA; test: two-hybrid library CCmax; conditions: mean of both orientations
T33 chain: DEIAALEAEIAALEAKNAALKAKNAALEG

Binder: DKNAALKAKIAALKAKIAALEAENAALKG [4H3940-AA]
- interaction score (4H3940-AA): 0.422
- interaction score (4H510-AA): -1.47
- interaction score (4H775-AA): -0.249
- interaction score (4H816-AA): -0.0778
- interaction score (4H87-AA): -0.615

Binder: DKNAALEAEIAALEAENAALEAKIAALKG [4H3094-AA]
- interaction score (4H3094-AA): -0.802
- interaction score (4H324-AA): -0.623
- interaction score (4H341-AA): 1.64
- interaction score (4H3449-AA): 2.52
- interaction score (4H3619-AA): -1.6
- interaction score (4H3629-AA): -0.24
- interaction score (4H3777-AA): -0.696
- interaction score (4H380-AA): 1.51
- interaction score (4H3915-AA): -0.623
- interaction score (4H3974-AA): -0.861
- interaction score (4H432-AA): 0.441
- interaction score (4H446-AA): -0.811
- interaction score (4H63-AA): -0.753

Continued, values first:

- interaction score (4H492-bH): 0.6
- interaction score (4H741-bH): -0.317
Binder: DEIQELEKKNEELKRKIWELKKENQELKR [4H492-bH]

- interaction score (4H454-bN): -0.79
- interaction score (4H568-bN): 0.196
- interaction score (4H607-bN): 0.145
- interaction score (4H687-bN): 1.02
- interaction score (4H717-bN): 0.0875
- interaction score (4H72-bN): 0.494
- interaction score (4H754-bN): -0.587
- interaction score (4H797-bN): -0.833
- interaction score (4H883-bN): -0.143
- interaction score (4H908-bN): 0.201
- interaction score (4H918-bN): -0.834
- interaction score (4H953-bN): -1.26
- interaction score (4H967-bN): -0.354
Binder: DEIQQLEQKNQELKQEIQELEWKIQELKQ [4H454-bN]
